Reference: US20040143095A1 (RESEARCH DEVELOPMENT FOUNDATION, published 2004)
Residue numbers refer to the chain shown, from its start. Where no end group is shown, it is not given here.

Tests used:
[1] = molecular target: T1, human CRF receptor type 1 (human, UniProt P34998 24-415); test: cell-based or functional assay
T1 sequence (looked up): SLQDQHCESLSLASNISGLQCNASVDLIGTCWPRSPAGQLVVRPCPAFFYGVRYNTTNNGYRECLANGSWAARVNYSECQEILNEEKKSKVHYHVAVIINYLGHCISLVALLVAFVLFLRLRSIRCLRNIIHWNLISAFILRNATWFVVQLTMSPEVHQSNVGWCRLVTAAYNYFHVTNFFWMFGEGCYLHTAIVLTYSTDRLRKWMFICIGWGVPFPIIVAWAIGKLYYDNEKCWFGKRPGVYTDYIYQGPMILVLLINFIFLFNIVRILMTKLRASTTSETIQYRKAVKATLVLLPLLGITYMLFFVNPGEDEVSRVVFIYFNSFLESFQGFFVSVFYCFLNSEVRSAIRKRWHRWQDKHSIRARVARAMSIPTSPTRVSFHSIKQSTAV

[2] = molecular target: T2, endogenous CRF-R1 of primary rat anterior pituitary cells (rat, UniProt P35353 24-415); test: cell-based or functional assay
T2 sequence (looked up): T1 sequence (looked up) with H6R, S9N, A13T, I16V, M153V, G163A, I209V, Y229H, H356R

## IVLSLDVPIGLLQILLEQARARAAREQATTNARILARV (peptide, UniProt Q96RP3 72-109, looked up) [Urocortin II (human)]
[1]
  cAMP in CHO cells stably expressing hCRF-R1 (EC50, nM): > 100 nM

## VILSLDVPIGLLRILLEQARYKAARNQAATNAQILAHV (peptide, UniProt Q99ML8 73-110, looked up) [Urocortin II (mouse)]
[1]
  cAMP in CHO cells stably expressing hCRF-R1 (EC50, nM): > 100 nM

## FTLSLDVPTNIMNLLFNIAKAKNLRAQAAANAHLMAQI-NH2 [Urocortin III (human)]
[1]
  cAMP in CHO cells stably expressing hCRF-R1 (EC50, nM): > 100 nM

## FTLSLDVPTNIMNILFNIDKAKNLRAKAAANAQLMAQI-NH2 [Urocortin III (mouse)]
[1]
  cAMP in CHO cells stably expressing hCRF-R1 (EC50, nM): > 100 nM

## DDPPLSIDLTFHLLRTLLELARTQSQRERAEQNRIIFDSV (peptide, UniProt P55090 81-120, looked up) [Urocortin (rat)]
[2]
  cAMP accumulation in primary rat anterior pituitary cells, EC50: 2.3 nM
